Source: publication doi:10.1101/2020.08.04.235895, “Analysis of Structure and function by the LysR-Type Transcriptional Regulator CbbR of Nostoc sp. PCC 7120”

How the values were obtained:
[1] = target: T1, CbbR_7120 (Nostoc sp. PCC 7120, UniProt Q8YQ82 1-337); assay: competition EMSA; competitor vs FAM-DNA; no significant change in free FAM-DNA; EMSA: 5X buffer 100 mM HEPES pH 7.6, 5 mM EDTA, 50 mM (NH4)2SO4, 5 mM DTT, 1% Tween 20, 150 mM KCl (2.5 uL per reaction, volume printed as 10 mL); 15 min on ice; 6% TBE-PAGE on ice; conditions: protein: recombinant; tags: N-terminal 6xHis; chain copies: 4; blunt
T1 sequence: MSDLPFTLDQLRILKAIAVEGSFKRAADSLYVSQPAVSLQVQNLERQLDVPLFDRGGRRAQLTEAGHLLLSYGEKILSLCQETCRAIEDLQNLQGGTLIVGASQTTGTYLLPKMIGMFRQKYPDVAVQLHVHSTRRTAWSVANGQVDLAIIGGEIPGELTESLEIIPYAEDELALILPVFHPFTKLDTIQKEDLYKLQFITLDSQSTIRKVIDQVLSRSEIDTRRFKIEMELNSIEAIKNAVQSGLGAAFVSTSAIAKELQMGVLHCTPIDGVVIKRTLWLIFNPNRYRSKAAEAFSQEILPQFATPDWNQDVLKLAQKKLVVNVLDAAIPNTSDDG

[2] = target: T1, CbbR_7120; assay: competition EMSA; competitor vs FAM-DNA; EMSA: 5X buffer 100 mM HEPES pH 7.6, 5 mM EDTA, 50 mM (NH4)2SO4, 5 mM DTT, 1% Tween 20, 150 mM KCl (2.5 uL per reaction, volume printed as 10 mL); 15 min on ice; 6% TBE-PAGE on ice; conditions: protein: recombinant; tags: N-terminal 6xHis; chain copies: 4; blunt
[3] = target: T1, CbbR_7120; assay: as above; conditions: protein: recombinant; tags: N-terminal 6xHis; chain copies: 4; blunt; remark: listed apart in the source
[4] = target: T1, CbbR_7120; assay: EMSA; EMSA: 5X buffer 100 mM HEPES pH 7.6, 5 mM EDTA, 50 mM (NH4)2SO4, 5 mM DTT, 1% Tween 20, 150 mM KCl (2.5 uL per reaction, volume printed as 10 mL); 15 min on ice; 6% TBE-PAGE on ice; conditions: protein: recombinant; tags: N-terminal 6xHis; chain copies: 4; label: 5'-FAM on forward strand; blunt
[5] = target: T1, CbbR_7120; assay: competition EMSA; competitor vs FAM-DNA; EMSA: 5X buffer 100 mM HEPES pH 7.6, 5 mM EDTA, 50 mM (NH4)2SO4, 5 mM DTT, 1% Tween 20, 150 mM KCl (2.5 uL per reaction, volume printed as 10 mL); 15 min on ice; 6% TBE-PAGE on ice; conditions: protein: recombinant; tags: N-terminal 6xHis; chain copies: 4; blunt; remark: listed apart in the source

B1: BOX 2 (dsDNA)
DNA 1: AGTTAAGAACTTTCAAAGA
DNA 2: TCTTTGAAAGTTCTTAACT
binding result [1]: no binding

B2: BOX 1 (dsDNA)
DNA 1: TAATAACAAATTTAAATAT
DNA 2: ATATTTAAATTTGTTATTA
binding signal [2]: ~400 competitor:FAM-DNA ratio for complete competition

B3: BOX 3 (dsDNA)
DNA 1: TTATGCCATTTCTTGATAT
DNA 2: ATATCAAGAAATGGCATAA
binding signal [3]: ~1000 competitor:FAM-DNA ratio for complete competition

B4: FAM-DNA (rbcLXS promoter probe) (dsDNA)
DNA 1: TAATAACAAATTTAAATATGTAAGTTAAGAACTTTCAAAGAATAACTTATGCCATTTCTTGATAT
DNA 2: ATATCAAGAAATGGCATAAGTTATTCTTTGAAAGTTCTTAACTTACATATTTAAATTTGTTATTA
binding result [4]: binds

B5: BOX1OP1 (dsDNA)
DNA 1: TGTAATAACAAATTTAAATATGTCATATAACAAATTTAAATATGT
DNA 2: ACATATTTAAATTTGTTATATGACATATTTAAATTTGTTATTACA
binding signal [5]: ~10 competitor:FAM-DNA ratio for complete competition
